In data set [1] the target is T1, SsArd1 (Saccharolobus solfataricus, UniProt Q980R9).
T1 construct: gene ard1; pET28a, C-terminal His6-tag, expressed in E. coli BL21(DE3); monomer
As to the kind of experiment: X-ray crystal structure, […] Å. In kind it is binding. The conditions noted are these: co-crystallised binary complex; CoA also in ternary complex with peptide.

The target in data set [2] is T2, SsArd1 E35V mutant (Sulfolobus solfataricus) (UniProt Q980R9).
T2 sequence: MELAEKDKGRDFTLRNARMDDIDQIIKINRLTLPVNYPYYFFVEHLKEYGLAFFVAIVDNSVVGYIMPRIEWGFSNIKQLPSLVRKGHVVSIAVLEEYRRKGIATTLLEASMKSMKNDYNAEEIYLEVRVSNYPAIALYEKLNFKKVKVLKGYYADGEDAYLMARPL

Data set [3] concerns the target T3, SsArd1 E35F mutant (Sulfolobus solfataricus) (UniProt Q980R9).
T3 sequence: T2 sequence with V35F

Substrate in data set [4]: CC(=O)SCCNC(=O)CCNC(=O)[C@H](O)C(C)(C)COP(=O)(O)OP(=O)(O)OC[C@H]1O[C@@H](n2cnc3c(N)ncnc32)[C@H](O)[C@@H]1OP(=O)(O)O
As to the kind of experiment: Ellman (DTNB) acetyltransferase assay, Michaelis-Menten fit. In kind it is biochemical, Saccharolobus solfataricus. As to conditions: saturating Alba peptide (SSGTPT), pH 8.0, 65°C. From the text:
Ellman (DTNB) acetyltransferase assay, Michaelis-Menten fit on SsArd1
(In general: In Ellman's method for cholinesterases, released thiocholine reacts with DTNB.)

Data set [5] concerns the target T4, SsArd1 E35A mutant (Sulfolobus solfataricus) (UniProt Q980R9).
T4 sequence: T2 sequence with V35A

The target in data set [6] is T5, Sulfolobus solfataricus Ard1 (SsArd1), wild type (Sulfolobus solfataricus, UniProt Q980R9 1-167).
T5 construct: N-alpha-acetyltransferase Ard1 of Sulfolobus solfataricus (NatA family); one molecule in the asymmetric unit; also called wild-type SsArd1; source: E. coli BL21 (DE3), purified (Ni-Sepharose, size-exclusion chromatography)
T5 sequence: T2 sequence with V35E
As to the kind of experiment: crystal structure; SsArd1-CoA crystals soaked with 2 mM Alba peptide (SSGTPT), dehydrated over 12.5% w/v PEG 4,000; ternary SsArd1-CoA/peptide complex at 1.84 Å. The conditions noted are these: both partners purified.

Setting [7] is: mutant given as R132A in Table 3, N132A in text.

A word on the Km: it is the concentration of substrate that gives half-maximal velocity. As a reminder, the kcat is the number of substrate molecules converted per active site and unit of time at saturation. As a reminder, the kcat/Km is the second-order rate constant that governs catalysis at low substrate concentration.

Residue numbers refer to the chain shown, from its start. Numbers in names are those of the source.

T1 sequence (Q980R9 whole entry): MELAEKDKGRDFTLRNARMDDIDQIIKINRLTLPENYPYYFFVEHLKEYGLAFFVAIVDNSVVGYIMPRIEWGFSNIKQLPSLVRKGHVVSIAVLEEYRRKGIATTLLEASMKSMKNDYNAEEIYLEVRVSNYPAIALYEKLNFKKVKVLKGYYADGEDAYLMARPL

On to `CC(C)(COP(=O)(O)OP(=O)(O)OC[C@H]1O[C@@H](n2cnc3c(N)ncnc32)[C@H](O)[C@@H]1OP(=O)(O)O)[C@@H](O)C(=O)NCCC(=O)NCCS` [CoA], for which the “X-ray crystal structure, 2.13 Å” value in data set [1] was 4R3K for SsArd1-CoA and 4R3L for SsArd1-CoA/peptide.
For the molecule AAKKRG [Hjc peptide (AAKKRG), N-terminal 6-mer of the Holliday junction-resolving enzyme Hjc], the acetyltransferase activity with the Hjc substrate peptide, against wild-type SsArd1 and the E35A mutant in data set [2] and in data set [3] was 2 fold in each case.

B1: SsArd1 (Saccharolobus solfataricus P2) (protein)
chain: T2 sequence with V35E
notes: pET28a, C-terminal His6-tag, expressed in E. coli BL21(DE3); monomer
For B1, in data set [4], the Km was 67.17 ± 7.48 µM, the kcat was determined as 0.5595 ± 0.0275 s⁻¹ and the kcat/Km stood at 8370 M⁻¹ s⁻¹.

B2: SsArd1 (Saccharolobus solfataricus P2; T105A) (protein)
chain: T2 sequence with V35E, T105A
notes: as for B1
For B2, in data set [4], the Km is 195.89 ± 12.27 µM, the kcat stood at 0.5818 ± 0.0205 s⁻¹ and the kcat/Km stood at 2970 M⁻¹ s⁻¹.

B3: SsArd1 (Saccharolobus solfataricus P2; N132A) (protein)
chain: T2 sequence with V35E, N132A
notes: as for B1
As for B3, in data set [4] (setting [7]), the Km was found to be 279.37 ± 75.86 µM, the kcat is 0.556 ± 0.0647 s⁻¹ and the catalytic efficiency (kcat/Km) worked out at 2050 M⁻¹ s⁻¹.

B4: SsArd1 (Saccharolobus solfataricus P2; R100A) (protein)
chain: T2 sequence with V35E, R100A
notes: as for B1
For B4, in data set [4], the Michaelis-Menten constant (Km) stood at 466.98 ± 50.83 µM, the kcat was 0.4783 ± 0.0448 s⁻¹ and the kcat/Km was determined as 1020 M⁻¹ s⁻¹.
Regarding MEEKVG [SSB peptide (MEEKVG), N-terminal 6-mer of the single-stranded DNA-binding protein SSB], the results for the acetyltransferase activity with the SSB substrate peptide, against wild-type SsArd1 in data set [2] and in data set [5] were 5 fold and 8 fold, respectively.

B5: Alba peptide (SSGTPT), N-terminal 6-mer of the chromatin protein Alba (peptide)
peptide: SSGTPT
notes: N-terminal 6 residues of Alba of Sulfolobus solfataricus, which has Ser at its N-terminus; Only the first 2 residues are seen in the electron density of the ternary complex; also called Alba substrate peptide; 6-mer Alba peptide; source: synthetic peptide (GenScript)
Consider B5, for which, in data set [6], the binding result is given as “binds”.
